For series [1], the system named is HeLa Kyoto. Nature of the series: solubility in G1/S (NP-40 vs SDS abundance) (log2 ratio); higher = more soluble. The note with it: cell cycle stage: G1/S.
In series [2] the test system is HeLa Kyoto. Nature of the series: melting temperature (median over replicates), in situ; higher = more thermally stable.
Series [3] deals with HeLa Kyoto. Nature of the series: thermal stability score vs G1/S (z-score of summed log2 fold changes over temperatures); higher = more thermally stable than in G1/S.
Series [4] relates to HeLa Kyoto. Kind of series: solubility change mitosis vs G1/S (difference of NP-40 vs SDS log2 ratios) (log2 ratio difference); higher = more soluble in mitosis.
Setting [5] is: cell cycle stage: early G1 (4.5 h after nocodazole release).
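Wherever melting temperature (median over replicates), in situ is given: HeLa Kyoto cells synchronized by double thymidine or nocodazole block, proteins quantified by TMT10plex mass spectrometry, three independent biological replicates.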
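Wherever solubility change mitosis vs G1/S (difference of NP-40 vs SDS log2 ratios) is given: synchronized HeLa Kyoto cells (double thymidine block for G1/S, nocodazole release for mitosis), protein amounts in NP-40 versus SDS lysates quantified by mass spectrometry, three biological replicates.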
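Wherever solubility in G1/S (NP-40 vs SDS abundance) is given: HeLa Kyoto cells arrested at G1/S by double thymidine block, proteins quantified by TMT10plex mass spectrometry in mild NP-40 versus SDS extracts, three biological replicates.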
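Wherever thermal stability score vs G1/S (z-score of summed log2 fold changes over temperatures) is given: synchronized HeLa Kyoto cells, proteins quantified by TMT10plex mass spectrometry, three biological replicates, mitosis taken 0.5 h after nocodazole release, G1/S directly after double thymidine block.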

For the sequence “MAAAAARVVLSSAARRRLWGFSESLLIRGAAGRSLYFGENRLRSTQAATQVVLNVPETRVTCLESGLRVASEDSGLSTCTVGLWIDAGSRYENEKNNGTAHFLEHMAFKGTKKRSQLDLELEIENMGAHLNAYTSREQTVYYAKAFSKDLPRAVEILADIIQNSTLGEAEIERERGVILREMQEVETNLQEVVFDYLHATAYQNTALGRTILGPTENIKSISRKDLVDYITTHYKGPRIVLAAAGGVSHDELLDLAKFHFGDSLCTHKGEIPALPPCKFTGSEIRVRDDKMPLAHLAIAVEAVGWAHPDTICLMVANTLIGNWDRSFGGGMNLSSKLAQLTCHGNLCHSFQSFNTSYTDTGLWGLYMVCESSTVADMLHVVQKEWMRLCTSVTESEVARARNLLKTNMLLQLDGSTPICEDIGRQMLCYNRRIPIPELEARIDAVNAETIREVCTKYIYNRSPAIAAVGPIKQLPDFKQIRSNMCWLRD [PMPCB]”, the “solubility in G1/S (log2)” value in the series on HeLa Kyoto [1] was found to be 0.179. The melting temperature was 51.7 °C in the series on HeLa Kyoto [2] (cell cycle stage: G1/S) and 52.1 °C in the series with HeLa Kyoto [2] (cell cycle stage: mitosis). Besides, the thermal stability score in the series with HeLa Kyoto [3] (setting [5]) is -0.694; in the series on HeLa Kyoto [3] (cell cycle stage: mitosis), -1.33. The “solubility change mitosis (log2)” value with HeLa Kyoto [4] was -0.0473.
Turning to “MAAAAARWNHVWVGTETGILKGVNLQRKQAANFTAGGQPRREEAVSALCWGTGGETQMLVGCADRTVKHFSTEDGIFQGQRHCPGGEGMFRGLAQADGTLITCVDSGILRVWHDKDKDTSSDPLLELRVGPGVCRMRQDPAHPHVVATGGKENALKIWDLQGSEEPVFRAKNVRNDWLDLRVPIWDQDIQFLPGSQKLVTCTGYHQVRVYDPASPQRRPVLETTYGEYPLTAMTLTPGGNSVIVGNTHGQLAEIDLRQGRLLGCLKGLAGSVRGLQCHPSKPLLASCGLDRVLRIHRIQNPRGLEHKVYLKSQLNCLLLSGRDNWEDEPQEPQEPNKVPLEDTETDELWASLEAAAKRKLSGLEQPQGALQTRRRKKKRPGSTSP [WDR74]”, the “solubility in G1/S (log2)” value in the series on HeLa Kyoto [1] was -0.848. This sequence also showed a melting temperature in the series with HeLa Kyoto [2] (cell cycle stage: mitosis) of 52 °C. In addition, the values for the thermal stability score in the series with HeLa Kyoto [3] (setting [5]) and with HeLa Kyoto [3] (cell cycle stage: mitosis) were -0.813 and -1.48, respectively. Moreover, the “solubility change mitosis (log2)” value in the series with HeLa Kyoto [4] was determined as 0.631.
On to “MAAAAASAPQQLSDEELFSQLRRYGLSPGPVTESTRPVYLKKLKKLREEEQQQHRSGGRGNKTRNSNNNNTAAATVAAAGPAAAAAAGMGVRPVSGDLSYLRTPGGLCRISASGPESLLGGPGGASAAPAAGSKVLLGFSSDESDVEASPRDQAGGGGRKDRASLQYRGLKAPPAPLAASEVTNSNSAERRKPHSWWGARRPAGPELQTPPGKDGAVEDEEGEGEDGEERDPETEEPLWASRTVNGSRLVPYSCRENYSDSEEEDDDDVASSRQVLKDDSLSRHRPRRTHSKPLPPLTAKSAGGRLETSVQGGGGLAMNDRAAAAGSLDRSRNLEEAAAAEQGGGCDQVDSSPVPRYRVNAKKLTPLLPPPLTDMDSTLDSSTGSLLKTNNHIGGGAFSVDSPRIYSNSLPPSAAVAASSSLRINHANHTGSNHTYLKNTYNKPKLSEPEEELLQQFKREEVSPTGSFSAHYLSMFLLTAACLFFLILGLTYLGMRGTGVSEDGELSIENPFGETFGKIQESEKTLMMNTLYKLHDRLAQLAGDHECGSSSQRTLSVQEAAAYLKDLGPEYEGIFNTSLQWILENGKDVGIRCVGFGPEEELTNITDVQFLQSTRPLMSFWCRFRRAFVTVTHRLLLLCLGVVMVCVVLRYMKYRWTKEEEETRQMYDMVVKIIDVLRSHNEACQENKDLQPYMPIPHVRDSLIQPHDRKKMKKVWDRAVDFLAANESRVRTETRRIGGADFLVWRWIQPSASCDKILVIPSKVWQGQAFHLDRRNSPPNSLTPCLKIRNMFDPVMEIGDQWHLAIQEAILEKCSDNDGIVHIAVDKNSREGCVYVKCLSPEYAGKAFKALHGSWFDGKLVTVKYLRLDRYHHRFPQALTSNTPLKPSNKHMNSMSHLRLRTGLTNSQGSS [LEMD3]”, for which the “solubility in G1/S (log2)” value in the series with HeLa Kyoto [1] stood at 0.0762. In addition, the melting temperature with HeLa Kyoto [2] (cell cycle stage: G1/S) was determined as 49.1 °C; with HeLa Kyoto [2] (cell cycle stage: mitosis), 50.5 °C. In addition, the thermal stability score in the series on HeLa Kyoto [3] (setting [5]) turned out to be 2.33; with HeLa Kyoto [3] (cell cycle stage: mitosis) it was 3.33. For the same sequence, the “solubility change mitosis (log2)” value with HeLa Kyoto [4] is -0.0382.
Regarding “MAAAAGMLLLGLLQAGGSVLGQAMEKVTGGNLLSMLLIACAFTLSLVYLIRLAAGHLVQLPAGVKSPPYIFSPIPFLGHAIAFGKSPIEFLENAYEKYGPVFSFTMVGKTFTYLLGSDAAALLFNSKNEDLNAEDVYSRLTTPVFGKGVAYDVPNPVFLEQKKMLKSGLNIAHFKQHVSIIEKETKEYFESWGESGEKNVFEALSELIILTASHCLHGKEIRSQLNEKVAQLYADLDGGFSHAAWLLPGWLPLPSFRRRDRAHREIKDIFYKAIQKRRQSQEKIDDILQTLLDATYKDGRPLTDDEVAGMLIGLLLAGQHTSSTTSAWMGFFLARDKTLQKKCYLEQKTVCGENLPPLTYDQLKDLNLLDRCIKETLRLRPPIMIMMRMARTPQTVAGYTIPPGHQVCVSPTVNQRLKDSWVERLDFNPDRYLQDNPASGEKFAYVPFGAGRHRCIGENFAYVQIKTIWSTMLRLYEFDLIDGYFPTVNYTTMIHTPENPVIRYKRRSK [CYP51A1]”, the “solubility in G1/S (log2)” value in the series on HeLa Kyoto [1] is -0.38. Further, the results for the melting temperature in the series with HeLa Kyoto [2] (cell cycle stage: G1/S) and in the series with HeLa Kyoto [2] (cell cycle stage: mitosis) were 48.4 °C and 50 °C, respectively. Besides, the thermal stability score with HeLa Kyoto [3] (setting [5]) was 2.55; in the series on HeLa Kyoto [3] (cell cycle stage: mitosis) it was 3.17. In the series with HeLa Kyoto [4], the “solubility change mitosis (log2)” value is 0.0784.
Take “MAAAAVAAAAAAAAAASLQVLEMESMETAAAGSAGLAAEVRGSGTVDFGPGPGISAMEASGGDPGPEAEDFECSSHCSELSWRQNEQRRQGLFCDITLCFGGAGGREFRAHRSVLAAATEYFTPLLSGQFSESRSGRVEMRKWSSEPGPEPDTVEAVIEYMYTGRIRVSTGSVHEVLELADRFLLIRLKEFCGEFLKKKLHLSNCVAIHSLAHMYTLSQLALKAADMIRRNFHKVIQDEEFYTLPFHLIRDWLSDLEITVDSEEVLFETVLKWVQRNAEERERYFEELFKLLRLSQMKPTYLTRHVKPERLVANNEVCVKLVADAVERHALRAENIQSGTCQHPTSHVSLLPRYGQNMDVIMVIGGVSEGGDYLSECVGYFVDEDRWVNLPHIHNHLDGHAVAVTESYVYVAGSMEPGFAKTVERYNPNLNTWEHVCSLMTRKHSFGLTEVKGKLYSIGGHGNFSPGFKDVTVYNPELDKWHNLESAPKILRDVKALAIEDRFVYIAARTPVDRDTEDGLKAVITCYDTETRQWQDVESLPLIDNYCFFQMSVVNSNFYQTASCCPKSYCLENEEAVRKIASQVSDEILESLPPEVLSIEGAAICYYKDDVFIIGGWKNSDDIDKQYRKEAYRYCAERKRWMLLPPMPQPRCRATACHVRIPYRYLHGTQRYPMPQNLMWQKDRIRQMQEIHRHALNMRRVPSSQIEC [KLHL11]”: the “solubility in G1/S (log2)” value in the series on HeLa Kyoto [1] was -0.226. Besides, the figures for the melting temperature in the series with HeLa Kyoto [2] (cell cycle stage: G1/S) and in the series on HeLa Kyoto [2] (cell cycle stage: mitosis) were 51.8 °C and 50.7 °C, respectively. Moreover, the thermal stability score in the series with HeLa Kyoto [3] (setting [5]) came to 0.384; in the series with HeLa Kyoto [3] (cell cycle stage: mitosis) it was 0.29. In addition, the “solubility change mitosis (log2)” value in the series on HeLa Kyoto [4] was -0.089.

(Values after the supplement of paper PMC5998384.)
